Experimental findings from the supplement of paper PMC10567573 are described below.

The nature of the data set: protein stability index of a GFP-peptide fusion (GPS, HEK-293T) (PSI 1-6); higher = more stable.
Where [1] appears, read: treatment: DMSO, c terminus: a fixed tail appended.
Where [2] appears, read: treatment: MLN4924 1 uM, 8 h, c terminus: a fixed tail appended.
Setting [3] is: treatment: DMSO, c terminus: native.
Where [4] appears, read: treatment: MLN4924 1 uM, 8 h, c terminus: native.

± gives the standard deviation.
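Also: 24-mer peptide tiles fused after GFP, lentivirally expressed, FACS-sorted into six equal bins by GFP/DsRed ratio, decoded by Illumina sequencing, PSI is the read-weighted mean bin number.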

On to PAASNSSDLFDLMGSSQATMTSSQ [CLINT1], for which the protein stability index is, setting by setting: under setting [1], 5.06 ± 0.16; under setting [2], 5.02 ± 0.17.
The like results for PAEEAGPEGGLEEPDALDDSLTSL [FOXJ1] were, in that order, 5.6 ± 0.23 and 5.56 ± 0.34.
As to PALETQPQGDEEDIASRYPTLWTE [SMOC2], the protein stability index reads like this: under setting [1], 4.78 ± 0.34; under setting [2], 4.85 ± 0.54.
On the same counts, the results for PAQSHTLQANDVFHKQQWFNCIRA [NET1] are 2.71 ± 0.38 and 2.71 ± 0.3.
Turning to PARDGVEASAEGPRAVFVLLEERR [TFE3], the protein stability index is, setting by setting: under setting [1], 4.26 ± 0.27; under setting [2], 4.23 ± 0.073.
In turn, PAVPEEILKRLLKEQHLWDVDLLD [DLC1] showed a protein stability index under setting [1] of 2.97 ± 0.55 and a protein stability index under setting [2] of 3.12 ± 0.34.
In the case of PCATVSVFPGARLLTIGDANGEIQ [CARM1], the protein stability index was 3.31 ± 0.38 under setting [1] and 3.28 ± 0.16 under setting [2].
For PDFYKQSSPNLQVSSDGTLKYMEV [PCDHGC5], the protein stability index came to 3.4 ± 0.16 under setting [1] and 3.39 ± 0.45 under setting [2].
On the same counts, the results for PDGKEMAEEYDEKTSELLVRKWRV [DPCD] are 4.31 ± 0.23 and 4.41 ± 0.11.
On the same counts, the results for PDHQVPYGHDYPRAAYQQVIQPAL [TRAF3IP2] are 3.48 ± 0.29 and 3.56 ± 0.24.
The like results for PGAYYPYERTLGQYQYERYGAVEL [IRX6] were, in that order, 2.3 ± 0.33 and 2.41 ± 0.21.
PGITRVYSIGRSVEGRHLYVLEFS [CPN1]: the protein stability index amounted to 3.12 ± 0.91 under setting [1] and 2.81 ± 0.63 under setting [2].
The like results for PGLSQGPGKETLESALIALDSEKP [EHMT1] were, in that order, 5.33 ± 0.28 and 5.31 ± 0.18.
With PGPPGSSRPVKGQVVTVHLQTSLE [FKBP8], the protein stability index is, setting by setting: under setting [1], 3.5 ± 0.48; under setting [2], 3.53 ± 0.22.
With PGSTRPHRSACSSAAVRGHPRALP [HAGHL], the protein stability index was 3.19 ± 0.23 under setting [1] and 3.15 ± 0.24 under setting [2].
The like results for PIDQGPAIGRVRVLEEQLVKAKEQ [FUT8] were, in that order, 5 ± 0.16 and 5.09 ± 0.27.
On the same counts, the results for PIMSGQGLAGFFASVAMICAIASG [SLC29A1] are 3.12 ± 0.21 and 3.13 ± 0.48.
Consider PIPHVFSAGTGSAILPHFHHAFR [PLAGL1], for which the protein stability index reads like this: under setting [3], 3.04 ± 0.22; under setting [4], 3.17 ± 0.16.
Consider PKSPATPKQLRLINQPLPDLKNVK [MAP2], for which the protein stability index turned out to be 4.51 ± 0.27 under setting [1] and 4.793 ± 0.034 under setting [2].
On the same counts, the results for PNDEHWKALSRKSTSFRVYIMAFD [FBXO33] are 2.11 ± 0.52 and 2.27 ± 0.45.
On to PNDEVHPLLGVKGDGKSKKKQAGR [RBBP5], for which the protein stability index under setting [1] amounted to 5.35 ± 0.27 and the protein stability index under setting [2] was determined as 5.2 ± 0.35.
On the same counts, the results for PPETVQNWIELLSGETWNPLKLHY [GOLPH3] are 2.17 ± 0.24 and 2.12 ± 0.21.
The like results for PPGPDRLPSNLVQYYDDEKKTWKI [KLHL14] were, in that order, 4.87 ± 0.082 and 4.7 ± 0.33.
In the case of PPKQAQKEQRKQMKGRGQLEKPPA [TBC1D10A], the protein stability index reads like this: under setting [1], 5.26 ± 0.18; under setting [2], 5.29 ± 0.21.
PPPELMDVSLVGGPADCSPPHPAP [DYRK1B] yielded a protein stability index under setting [1] of 5.08 ± 0.22 and a protein stability index under setting [2] of 5.1 ± 0.11.
On the same counts, the results for PPPPIDNGDITSFLLSVYAPGSSV [CFHR2] are 2.66 ± 0.33 and 2.65 ± 0.37.
The like results for PPPPPGPPPPPGLPSDGDHQVPTT [WASL] were, in that order, 5.48 ± 0.26 and 5.63 ± 0.21.
On the same counts, the results for PPPPPKEGHQEGLVELPASFRELL [SCNN1D] are 4.29 ± 0.12 and 4.29 ± 0.1.
With PPRGPLAKHRLVPPAQGRVSRRLS [TRIM9], the protein stability index came out at 4.21 ± 0.27 under setting [1] and 4.16 ± 0.49 under setting [2].
The like results for PPRPPPRGTPPRRHSFRKHLYLLR [N4BP2L1] were, in that order, 3.32 ± 0.35 and 3.56 ± 0.23.
For the sequence PQALPEPMQESKAEGNNQAPGEEE [CHGA], the protein stability index runs as follows: under setting [1], 5.54 ± 0.24; under setting [2], 5.5 ± 0.35.
In turn, PQERTLTLVDTGIGMTKADLINNL [HSP90AB1] showed a protein stability index under setting [1] of 3.49 ± 0.33 and a protein stability index under setting [2] of 3.67 ± 0.26.
PQHQAGSDSLLTGMAFFKMREMFF [CNOT7]: the protein stability index came out at 2.13 ± 0.16 under setting [1] and 2.15 ± 0.099 under setting [2].
The like results for PQLGLDGPGEPDVRDGFSATFEKI [PSD2] were, in that order, 4.73 ± 0.18 and 4.67 ± 0.13.
The like results for PQPDPVFLEALSSRYLGDSGLDDF [SERTAD3] were, in that order, 4.19 ± 0.47 and 4.08 ± 0.14.
PRGYFHTFAGDTCQVALNFANEEE [WASL]: the protein stability index is, setting by setting: under setting [1], 4.43 ± 0.27; under setting [2], 4.34 ± 0.12.
The like results for PRPNRLFLRQLRASHLGNELEGTE [C2CD2L] were, in that order, 3.92 ± 0.15 and 4.05 ± 0.26.
On the same counts, the results for PRRRRPGCYAYRQNPEAIAAAAMY [MYORG] are 2.78 ± 0.19 and 2.9 ± 0.34.
The like results for PRSPECRMIPGQPPASARRLSVPR [IRX6] were, in that order, 4.47 ± 0.24 and 4.52 ± 0.12.
In the case of PRTRGSWSQPQPLKAPCLNGDTT [RASAL3], the protein stability index reads like this: under setting [3], 3.62 ± 0.36; under setting [4], 3.5 ± 0.36.
For the sequence PRTSQSEETRVWHRRDGKWQNVHF [CAMK2B], the protein stability index reads like this: under setting [1], 3.29 ± 0.3; under setting [2], 3.39 ± 0.22.
On the same counts, the results for PSHSDNLLHGLNLLWRKQLFCDVT [KLHL14] are 1.96 ± 0.33 and 2.16 ± 0.3.
Consider PSMNPDGYEVAAAQGPNKPGYLVG [CPN1], for which the protein stability index by setting is: under setting [1], 4.33 ± 0.19; under setting [2], 4.25 ± 0.24.
Consider PSNGRIDIKQLIAKKIKLTAEAEE [SOAT1], for which the protein stability index was 3.19 ± 0.59 under setting [1] and 3.33 ± 0.31 under setting [2].
On the same counts, the results for PTMPALFSDHTFRHYAYLRDSLSH [INTS4] are 2.3 ± 0.14 and 2.31 ± 0.12.
On the same counts, the results for PVGEPVTNVRLQPAATWNLEEKRL [FCHO1] are 4.52 ± 0.27 and 4.63 ± 0.24.
With PVGLVMEYMETGSLEKLLASEPLP [RIPK4], the protein stability index came out at 3.46 ± 0.48 under setting [1] and 3.13 ± 0.22 under setting [2].
The like results for PVLKRSSESMENINSGYETRRKKG [KMT2E] were, in that order, 4.87 ± 0.28 and 4.72 ± 0.29.
As to PVTPQVGEGRKSRKFSRLSCLRRR [SMG5], the protein stability index under setting [1] stood at 4.36 ± 0.068 and the protein stability index under setting [2] came out at 4.34 ± 0.12.
On the same counts, the results for PVTSIGIDNLGLKLEENLQETHSA [SLC35F2] are 5.06 ± 0.19 and 5 ± 0.11.
On to PVVSAVWGHCEVTMRYINGLDPEP [SPSB4], for which the protein stability index under setting [1] worked out at 2.28 ± 0.23 and the protein stability index under setting [2] was 2.54 ± 0.53.
On the same counts, the results for PVVSMDLDPQPITDEEEGLIWVVG [PTPRD] are 3.96 ± 0.29 and 4.29 ± 0.48.
The like results for PYPVLFHNIFLLGGSSTSERCLLN [NLN] were, in that order, 3.23 ± 1.5 and 2.59 ± 0.8.
The like results for QAELSYKKVSEGPPLRLWRSVIEV [DLC1] were, in that order, 2.19 ± 0.31 and 2.49 ± 0.43.
Regarding QAKILQCYRENTHQTLKCSALATQ [CHCHD3], the protein stability index is 3.21 ± 0.31 under setting [1] and 3.33 ± 0.26 under setting [2].
On the same counts, the results for QALAGASSGRELGRPKELQPKKLH [ZNF263] are 5.01 ± 0.46 and 4.82 ± 0.14.
QALEKIFLQKVAQMPQEEVELLPP [BRD3]: the protein stability index stood at 2.63 ± 0.26 under setting [1] and 2.83 ± 0.4 under setting [2].
The like results for QAQQGRSSLVWLFSQLYLYSFISL [MCOLN1] were, in that order, 2.86 ± 0.46 and 3.09 ± 0.25.
Turning to QDGLPPTWRDFRTLEAFHDTCRQ [MED27], the protein stability index reads like this: under setting [3], 4.16 ± 0.27; under setting [4], 4.21 ± 0.4.
QEAMKRLRGAKAFRLPGLSRRERE [FCHO1]: the protein stability index was 3.91 ± 0.25 under setting [1] and 4.13 ± 0.2 under setting [2].
As to QEELQIQAAVAAGDVHTVRKMLEQ [ASB7], the protein stability index is, setting by setting: under setting [1], 5 ± 0.39; under setting [2], 4.73 ± 0.21.
The like results for QEHSNSVGGQDTGATWRTSGLLEE [C18orf25] were, in that order, 5.28 ± 0.27 and 4.96 ± 0.18.
For the sequence QFVEGVRMEEIVEGCTGALHILAR [CTNNB1], the protein stability index reads like this: under setting [1], 3.12 ± 0.52; under setting [2], 3.05 ± 0.64.
The like results for QGPTPRYFTWDEVAQRSGCEERWL [FADS1] were, in that order, 3.43 ± 0.27 and 3.39 ± 0.24.
On the same counts, the results for QGSLENMSKLLKRQNDILQVVSQG [CD207] are 3.39 ± 0.22 and 3.64 ± 0.22.
Regarding QKLNPGFDLAKGNAGKVNLPKELP [PLAGL1], the protein stability index is, setting by setting: under setting [1], 4.27 ± 0.14; under setting [2], 4.15 ± 0.3.
On the same counts, the results for QKVLGKALSLIRFPLMTIEEFAAG [BTBD1] are 3.06 ± 0.57 and 2.52 ± 0.38.
The like results for QLKESKSKIDALSSEKLNLQKDLE [CEP70] were, in that order, 5.03 ± 0.1 and 5.16 ± 0.13.
The like results for QLLSAMGSLCSLWFGASVLSLLEL [SCNN1D] were, in that order, 3.2 ± 0.61 and 3.19 ± 0.49.
As to QLREALKILAERVLILETMIGLYE [EMID1], the protein stability index under setting [1] is 2.31 ± 0.27.
The sequence QMMSATAQNREPESVEQLESRIVE [SNX8] displayed a protein stability index under setting [1] of 5.37 ± 0.17 and a protein stability index under setting [2] of 5.56 ± 0.24.
The like results for QNFLDPGYPLPKLDMNFSLENREE [ZNF449] were, in that order, 5.02 ± 0.24 and 4.74 ± 0.29.
